From patent publication US20080199514A1 (BURNHAM INSTITUTE, published 2008)

Target: T1, Lck phosphopeptide (ARLIEDNEpYTAAREG)
T1 chain: ARLIEDNEYTAAREG

B1: full length Hemagglutinin (HA) tagged LYP having W620 (protein)
chain: MDQREILQKFLDEAQSKKITKEEFANEFLKLKRQSTKYKADKTYPTTVAEKPKNIKKNRYKDILPYDYSRVELSLITSDEDSSYINANFIKGVYGPKAYIATQGPLSTTLLDFWRMIWEYSVLIIVMACMEYEMGKKKCERYWAEPGEMQLEFGPFSVSCEAEKRKSDYIIRTLKVKFNSETRTIYQFHYKNWPDHDVPSSIDPILELIWDVRCYQEDDSVPICIHCSAGCGRTGVICAIDYTWMLLKDGIIPENFSVFSLIREMRTQRPSLVQTQEQYELVYNAVLELFKRQMDVIRDKHSGTESQAKHCIPEKNHTLQADSYSPNLPKSTTKAAKMMNQQRTKMEIKESSSFDFRTSEISAKEELVLHPAKSSTSFDFLELNYSFDKNADTTMKWQTKAFPIVGEPLQKHQSLDLGSLLFEGCSNSKPVNAAGRYFNSKVPITRTKSTPFELIQQRETKEVDSKENFSYLESQPHDSCFVEMQAQKVMHVSSAELNYSLPYDSKHQIRNASNVKHHDSSALGVYSYIPLVENPYFSSWPPSGTSSKMSLDLPEKQDGTVFPSSLLPTSSTSLFSYYNSHDSLSLNSPTNISSLLNQESAVLATAPRIDDEIPPPLPVWTPESFIVVEEAGEFSPNVPKSLSSAVKVKIGTSLEWGGTSEPKKFDDSVILRPSKSVKLRSPKSELHQDRSSPPPPLPERTLESFFLADEDCMQAQSIETYSTSYPDTMENSTSSKQTLKTPGKSFTRSKSLKILRNMKKSICNSCPPNKPAESVQSNNSSSFLNFGFANRFSKPKGPRNPPPTWNI
  Dephosphorylation of an Lck phosphopeptide by immunoprecipitated HA-tagged LYP; specific activity relative to LYP*R620: LYP*W620 displayed a 57.2% (±9.8%, n=5) higher specific activity when corrected for amount of protein
